This passage reports kon, Kd and koff results from publication PMC7949130.

For test [1], the target named is nonsulfated human cationic trypsin purified from E. coli (human). The test is described as follows: discontinuous association rate assay (residual trypsin activity); 50 pM trypsin mixed with 500 pM SPINK1, 0.1 M Tris-HCl (pH 8.0), 150 mM NaCl, 1 mM CaCl2, 0.05% Tween 20, 23 °C; kon from the pseudo-first-order rate constant divided by the inhibitor concentration.
The target of test [2] is native sulfated human cationic trypsin purified from pancreatic juice (human). Described as above.
Test [3] deals with nonsulfated human cationic trypsin purified from the conditioned medium of transfected HEK 293T cells (human). The test can be described thus: equilibrium binding assay (free trypsin activity on a fluorogenic substrate); fixed trypsin incubated with increasing SPINK1, 0.2 ml, 0.1 M Tris-HCl (pH 8.0), 150 mM NaCl, 1 mM CaCl2, 0.05% Tween 20, 15 h; free trypsin measured with Z-Gly-Pro-Arg-AMC; apparent KD, global fit of at least three experiments.

Test [4] concerns the target sulfated human cationic trypsin purified from the conditioned medium of transfected HEK 293T cells (human). Described as above.
In test [5] the target is nonsulfated human cationic trypsin purified from E. coli (human). The test is described as above.
The target of test [6] is native sulfated human cationic trypsin purified from pancreatic juice (human). The test is described as above.
Test [7] deals with nonsulfated human cationic trypsin purified from E. coli (human). The test is described as follows: dissociation rate assay (recovery of trypsin activity after dilution of the complex); complex of 11 nM SPINK1 and 10 nM trypsin formed for 1 h at 23 °C, diluted to 50-200 pM with 0.6 mM Z-Gly-Pro-Arg-AMC, 0.1 M Tris-HCl (pH 8.0), 150 mM NaCl, 1 mM CaCl2, 0.05% Tween 20, room temperature, followed for 1 h.

The target of test [8] is native sulfated human cationic trypsin purified from pancreatic juice (human). The test is described as above.
Test [9] addresses nonsulfated human cationic trypsin purified from E. coli (human). The test is described as follows: KD calculated from the rate constants (association and dissociation rate assays); KD(calc): equilibrium dissociation constant calculated from kon and koff of the activity-based rate assays.
For test [10], the target named is native sulfated human cationic trypsin purified from pancreatic juice (human). The description is as above.
Test [11] shares this target. The test is described as follows: equilibrium binding assay (free trypsin activity on a fluorogenic substrate); fixed trypsin incubated with increasing SPINK1, 0.2 ml, 0.1 M Tris-HCl (pH 8.0), 150 mM NaCl, 1 mM CaCl2, 0.05% Tween 20, 15 h; free trypsin measured with Z-Gly-Pro-Arg-AMC; apparent KD, global fit of at least three experiments. This is another data set of the same source.

Test [12] has the same target. The test can be described thus: equilibrium binding assay (free trypsin activity on a fluorogenic substrate); as the equilibrium assay but K41N SPINK1 incubated with trypsin for 1 h; 0.1 M Tris-HCl (pH 8.0), 150 mM NaCl, 1 mM CaCl2, 0.05% Tween 20; apparent KD.
For test [13], the target named is nonsulfated human cationic trypsin purified from E. coli (human). The test is described as follows: equilibrium binding assay (free trypsin activity on a fluorogenic substrate); fixed trypsin incubated with increasing SPINK1, 0.2 ml, 0.1 M Tris-HCl (pH 8.0), 150 mM NaCl, 1 mM CaCl2, 0.05% Tween 20, 15 h; free trypsin measured with Z-Gly-Pro-Arg-AMC; apparent KD, global fit of at least three experiments. The source holds these as a separate data set.

By kon is commonly meant a measure of how fast the partners come together. Low readings indicate slower complex formation, high ones faster complex formation. What is called koff is a measure of how fast the partners let go of each other. Higher therefore signals fast dissociation.

B1: serine protease inhibitor Kazal type 1 (SPINK1), wildtype, C-terminal 10His tag (natural protein)
chain: DSLGREAKCYNELNGCTKIYDPVCGTDGNTYPNECVLCFENRKRQTSILIQKSGPC
In the case of B1, the association rate constant (kon) in [1] turned out to be 3e+06 M⁻¹ s⁻¹; in test [2], 3.5e+06 M⁻¹ s⁻¹. The Kd is 4.4 pM in test [3]; 0.0402 nM in [4]; 1.1 pM in test [5]; 0.0622 nM in test [6]; 2.7 pM in [9]; 0.0158 nM in test [10]. The Kd in test [11] came to 0.0674 nM. For the same molecule, the koff came to 8.2e-06 s⁻¹ in test [7] and 5.48e-05 s⁻¹ in test [8].

B2: SPINK1 variant N34S, C-terminal 10His tag (natural protein)
chain: DSLGREAKCYSELNGCTKIYDPVCGTDGNTYPNECVLCFENRKRQTSILIQKSGPC
Regarding B2, the results for the kon in test [1] and in [2] were 5.3e+06 M⁻¹ s⁻¹ and 2.7e+06 M⁻¹ s⁻¹, respectively. The Kd was 4.7 pM in test [3]; 0.0375 nM in test [4]; 1.5 pM in test [5]; 0.0323 nM in [6]; 1.3 pM in test [9]; 0.0164 nM in [10]. The koff in [7] was 7e-06 s⁻¹; in test [8], 4.5e-05 s⁻¹.

B3: SPINK1 variant R65Q, C-terminal 10His tag (natural protein)
chain: DSLGREAKCYNELNGCTKIYDPVCGTDGNTYPNECVLCFENQKRQTSILIQKSGPC
Turning to B3, the Kd in [6] came to 0.0592 nM.

B4: SPINK1 variant N37S, C-terminal 10His tag (natural protein)
chain: DSLGREAKCYNELSGCTKIYDPVCGTDGNTYPNECVLCFENRKRQTSILIQKSGPC
As to B4, in [6], the Kd was 0.0869 nM.

B5: SPINK1 variant Q68R, C-terminal 10His tag (natural protein)
chain: DSLGREAKCYNELNGCTKIYDPVCGTDGNTYPNECVLCFENRKRRTSILIQKSGPC
On to B5, for which, in [6], the Kd worked out at 0.068 nM.

B6: SPINK1 variant P55S, C-terminal 10His tag (natural protein)
chain: DSLGREAKCYNELNGCTKIYDPVCGTDGNTYSNECVLCFENRKRQTSILIQKSGPC
As to B6, in test [6], the Kd is 0.101 nM.

B7: SPINK1 variant K41N, C-terminal 10His tag (natural protein)
chain: DSLGREAKCYNELNGCTNIYDPVCGTDGNTYPNECVLCFENRKRQTSILIQKSGPC
As to B7, the Kd in test [12] is 1290 nM.

B8: SPINK1 mutant Y43A (natural protein)
chain: DSLGREAKCYNELNGCTKIADPVCGTDGNTYPNECVLCFENRKRQTSILIQKSGPC
In the case of B8, the Kd worked out at 0.0203 nM in [13] and 0.0622 nM in [11].

B9: SPINK1 variant I42M, C-terminal 10His tag (natural protein)
chain: DSLGREAKCYNELNGCTKMYDPVCGTDGNTYPNECVLCFENRKRQTSILIQKSGPC
Take B9: in test [6], the Kd is 0.2 nM.

B10: SPINK1 mutant Y43R (natural protein)
chain: DSLGREAKCYNELNGCTKIRDPVCGTDGNTYPNECVLCFENRKRQTSILIQKSGPC
Consider B10, for which the Kd in test [13] was determined as 0.104 nM; in test [11] it was 0.0271 nM.
